Reference: patent US12551573B2, “Compositions and methods for the targeting of PCSK9” (Scribe Therapeutics Inc., priority 2022, dated 2026)

system: HBEGF locus; type: cell-based, human; settings: fold change in abundance of each repressor domain in the dXR library before vs after diphtheria toxin selection; dXR repression of the HBEGF gene; domains meeting p-value <0.01 and log2(fold change) >2

| Molecule | Log2 (fold change) |
| --- | --- |
| DOMAIN_26496 (protein, listed as Geotrypetes seraphini) QMPVKFEDIAVSFSQEEWEYLDEEQKELYREVMKENYQTLISLGTGSPSITPDIISHIERGEEPYIREEPGSEEREPGRSS | 2.7991 |
| DOMAIN_26463 (protein, listed as Pelodiscus sinensis) DSMRVTFEEVAVYFTPGQGALLGPAQRALYRDVMQENYEAVTSLGFPVPKPELIARLERGEEPWVPDLQAREEREIPRGTC | 2.8812 |

same assay, conditions: high-throughput screen of dXR repression of the HBEGF gene; abundance of each domain in the library before vs after diphtheria toxin selection; listed domains met p-value <0.01 and log2(fold change) >2

| Molecule | Log2 (fold change) |
| --- | --- |
| DOMAIN_26131 (protein, listed as Geotrypetes seraphini) AQMPVKFEDIAVSFSQEEWEYLNEEQKELYREVMEENYQTLISLGSPPVTPDIISHIERGEEPYIREEPGSEEREPGRSSC | 2.4087 |
| DOMAIN_26268 (protein, listed as Geotrypetes seraphini) VARMQTRVTFDDIAVSFSQEEWEYLDEGQKELYREVMEENLELLTSLGSLVAQPEQMEELYMMDHHDMGLRGTLLSLCTED | 2.1404 |
| DOMAIN_25671 (protein, listed as Muntiacus reevesi) GLLSFEDVALYFTREEWDTLDWAQKALYRDVMLDNYRHIVSLGFPFPKPEVICQLEQWEEPWTLDLPRAGTRKASGSACPD | 3.5244 |
| DOMAIN_25996 (protein, listed as Geotrypetes seraphini) QMPVKFEDIAVSFSQEEWEYLNEEQKELYREVMEENYQTLISLGTGSPPITPDIISHIERGEEPYIREEPGSEERGPVRSS | 3.984 |
| DOMAIN_26180 (protein, listed as Geotrypetes seraphini) QMPVKFEDIAVSFSQEEWEYLNEEQKELYREVMEENYQTLISLGIGSPSVTPDIISHIEGGEEPYIREEPGSEEREPGRSS | 3.4522 |
| DOMAIN_26306 (protein, listed as Geotrypetes seraphini) QMPIKFEDIAVSFSQEEWEYLNEEQKELYREVMKENYQTLISLGTGSPPVTPDIISHIERGEEPYIREEPGSEEREPGRSS | 2.6178 |
| DOMAIN_26407 (protein, listed as Colinus virginianus) PSVPVTFRDVFVQFSRDEWALLDDEQKELHQSVMQSNYEMLMSLYCDLAKPEVSLQMERGEPCLPAEPDLQGTAVSLNPAA | 2.9778 |
| DOMAIN_25565 (protein, listed as Muntiacus reevesi) LPLTFEDVAVYFSEQEWQNLEAWQKELYKQVMRANYEILLSLDNGLPKPELISWIEQGKELFKKWGESQQSRSIICSSADL | 2.6133 |
| DOMAIN_24838 (protein, Pteropus alecto) FQASVSFKDVTVELTQEEWQQMGPLQRTLYRDVMLENYNNLVSVGSCIYKPELIFKLEQGEEPWLLEEEFSNQSYQVLEHY | 2.3323 |
| DOMAIN_26299 (protein, listed as Geotrypetes seraphini) QIPVIFEDIVIYFSQEEWKDLEEWQKELYKDVMKENYQTLISLGTGFPTPPPDIISHIERGEEPYIRDELESEKRETGKRG | 2.3704 |
| DOMAIN_25654 (protein, Pteropus alecto) LWLPLTFEDIAIYFSEQEWQNLEAWQKDLYRNVMRANYEILVSLDDGLPKPELISHIEQGKELFWNLGETQKSGNIICSSA | 2.2996 |
| DOMAIN_26305 (protein, listed as Geotrypetes seraphini) QQMQVTFEDVAVSFSQEEWEYLDEGQKELYREVMKENYETVVSLGSPASTPKIISCIECGEEAYIRGEPGSEGRETGKSSC | 3.0107 |
| DOMAIN_26292 (protein, listed as Geotrypetes seraphini) QMQVTFEEVAISFSQEEWEYLDEEQKELYREVMKENYQTLISLATGSPTVTPKIIAHIERGEEPYIRGEPGSEERETGNSS | 2.4722 |
| DOMAIN_26177 (protein, listed as Geotrypetes seraphini) ASAQVTFEDIAVSFCHEEWRYLDEGQKELYKEVMKENYETLISLGFLCEKPSLISKIEQEEDPCVRDQQNSRERRRRLKNF | 3.4467 |
| DOMAIN_26044 (protein, listed as Geotrypetes seraphini) QMRLRFEDISVSFSQEEWAYLDEEQKELYREVMRDNYQTLISLGIGSPPVTPDIISCIEQGEEPYIRDEPGSEERKTGRSS | 2.8874 |
| DOMAIN_26134 (protein, listed as Geotrypetes seraphini) AQVPVTFEDIAIYFSQEEWEYLDEGQKALYREVMKENYETLLLLGCPGLKPVIISSIEQGEEPCVRKLQERAELYPTAGDE | 2.4433 |
| DOMAIN_26103 (protein, listed as Geotrypetes seraphini) EMRVMFEEITVSFSQEEWEYLDEGQKELYQEVMKENHETLIFLETNLQFVNPDMLSKIRRDSRMSRKRKATRSYAADDEAK | 2.5308 |
| DOMAIN_25686 (protein, listed as Panthera pardus) PRVSLTFEDVAVLFTRDEWRKLGPSERNLYQDVMLENYSNLVSLGLLFSKPKVISLLQQGEDPWKVEKESPGGPSLGYKSS | 2.8635 |
| DOMAIN_25235 (protein, listed as Oryctolagus cuniculus) LPGLMAFEDVAVYFSQEEWGLLDAVQRALYRHVMLENFALVASLGLSASPPHVVIQLQRGEEPWVPSGLDMTSARNGHRRP | 3.6965 |
| DOMAIN_25973 (protein, listed as Geotrypetes seraphini) ARAPVSFEEVAVYFSPEEWQTLQGWQKEMYRGVMRENYEIMLSLGYQFSKPEILLMMERGEEPCVEDCQRRIPVTFREKHL | 2.7804 |
| DOMAIN_24903 (protein, listed as Ailuropoda melanoleuca) EMEPHSHAVPCQPSMSFKDVAVTFTQEEWGQLNLAQRRLYRNVTLETWSHLVSLGLLLSKPDVISWLEQGQDPWRAEQGPP | 3.0377 |
| DOMAIN_26012 (protein, listed as Geotrypetes seraphini) QMQVKFEDIAISFSQEEWEYLNEEQKELYREVMEENYQTLLSLATDSPTFTPKIISYIKRGEEPYIRGEPDSEERESGKSS | 2.3532 |
| DOMAIN_25682 (protein, listed as Rhinopithecus bieti) PRLPLTFEDVAIYFSEQEWQDLEAWQKELYKHVMRSNYETLVSLDDGLPKPELISWIEHGGEPFRNWRESQKSRNIICSSS | 2.5621 |

same assay, conditions: high-throughput screen of dXR repression of the HBEGF gene; change in abundance of each domain in the library before and after diphtheria toxin selection

| Molecule | Log2 (fold change) |
| --- | --- |
| DOMAIN_938 (protein, listed as Pan paniscus) MPANEDAPQPGEHGSACEVSVSFEDVTVDFSREEWQQLDSTQRRLYQDVMLENYSHLLSVGFEVPKPEVIFKLEQGEGPWT | 2.2926 |
| DOMAIN_980 (protein, Pan troglodytes) MPLKAQYQEMVTFEDVAVHFTKTEWTGLSPAQRALYRSVMLENFGNLTALGYPVPKPALISLLEGGDMAWGLEAQDDPPAE | 2.9297 |
